Results: article PMC7523099

Legend:
[1] = molecular target: SARS-CoV-2 RBD-5GS-1TD0 (SARS-CoV-2 | not stated) (UniProt P0DTC2); assay: SDS-PAGE
[2] = molecular target: SARS-CoV-1 RBD-5GS-1TD0 (SARS-CoV-1 | not stated); assay: SDS-PAGE

“SARS-CoV-2 RBD-5GS-1TD0 (from UniProt P0DTC2 330-532) (domain or fragment)” showed a stoichiometry N [1] of 3.

“SARS-CoV-1 RBD-5GS-1TD0 (domain or fragment)” gave a stoichiometry N [2] of 3.
